Results on 11 molecules are retold here after US12099068B2, “Biomarkers for graft-versus-host disease” (Incyte Corporation, priority 2018, dated 2024).

The labels stand for the following.
B1: LYN (protein, UniProt P07948 2-512, looked up)
Tyrosine-protein kinase Lyn: GCIKSKGKDSLSDDGVDLKTQPVRNTERTIYVRDPTSNKQQRPVPESQLLPGQRFQTKDPEEQGDIVVALYPYDGIHPDDLSFKKGEKMKVLEEHGEWWKAKSLLTKKEGFIPSNYVAKLNTLETEEWFFKDITRKDAERQLLAPGNSAGAFLIRESETLKGSFSLSVRDFDPVHGDVIKHYKIRSLDNGGYYISPRITFPCISDMIKHYQKQADGLCRRLEKACISPKPQKPWDKDAWEIPRESIKLVKRLGAGQFGEVWMGYYNNSTKVAVKTLKPGTMSVQAFLEEANLMKTLQHDKLVRLYAVVTREEPIYIITEYMAKGSLLDFLKSDEGGKVLLPKLIDFSAQIAEGMAYIERKNYIHRDLRAANVLVSESLMCKIADFGLARVIEDNEYTAREGAKFPIKWTAPEAINFGCFTIKSDVWSFGILLYEIVTYGKIPYPGRTNADVMTALSQGYRMPRVENCPDELYDIMKMCWKEKAEERPTFDYLQSVLDDFYTATEGQYQQQP
B2: APBB1IP (protein, UniProt Q7Z5R6 1-666, looked up)
Amyloid beta A4 precursor …: MGESSEDIDQMFSTLLGEMDLLTQSLGVDTLPPPDPNPPRAEFNYSVGFKDLNESLNALEDQDLDALMADLVADISEAEQRTIQAQKESLQNQHHSASLQASIFSGAASLGYGTNVAATGISQYEDDLPPPPADPVLDLPLPPPPPEPLSQEEEEAQAKADKIKLALEKLKEAKVKKLVVKVHMNDNSTKSLMVDERQLARDVLDNLFEKTHCDCNVDWCLYEIYPELQIERFFEDHENVVEVLSDWTRDTENKILFLEKEEKYAVFKNPQNFYLDNRGKKESKETNEKMNAKNKESLLEESFCGTSIIVPELEGALYLKEDGKKSWKRRYFLLRASGIYYVPKGKTKTSRDLACFIQFENVNIYYGTQHKMKYKAPTDYCFVLKHPQIQKESQYIKYLCCDDTRTLNQWVMGIRIAKYGKTLYDNYQRAVAKAGLASRWTNLGTVNAAAPAQPSTGPKTGTTQPNGQIPQATHSVSAVLQEAQRHAETSKDKKPALGNHHDPAVPRAPHAPKSSLPPPPPVRRSSDTSGSPATPLKAKGTGGGGLPAPPDDFLPPPPPPPPLDDPELPPPPPDFMEPPPDFVPPPPPSYAGIAGSELPPPPPPPPAPAPAPVPDSARPPPAVAKRPPVPPKRQENPGHPGGAGGGEQDFMSDLMKALQKKRGNVS
B3: CLEC1A (protein, UniProt Q8NC01 1-280, looked up)
C-type lectin domain family 1 …: MQAKYSSTRDMLDDDGDTTMSLHSQGSATTRHPEPRRTEHRAPSSTWRPVALTLLTLCLVLLIGLAALGLLFFQYYQLSNTGQDTISQMEERLGNTSQELQSLQVQNIKLAGSLQHVAEKLCRELYNKAGAHRCSPCTEQWKWHGDNCYQFYKDSKSWEDCKYFCLSENSTMLKINKQEDLEFAASQSYSEFFYSYWTGLLRPDSGKAWLWMDGTPFTSELFHIIIDVTSPRSRDCVAILNGMIFSKDCKELKRCVCERRAGMVKPESLHVPPETLGEGD
B4: DAB2 (protein, UniProt P98082 2-770, looked up)
Disabled homolog 2: SNEVETSATNGQPDQQAAPKAPSKKEKKKGPEKTDEYLLARFKGDGVKYKAKLIGIDDVPDARGDKMSQDSMMKLKGMAAAGRSQGQHKQRIWVNISLSGIKIIDEKTGVIEHEHPVNKISFIARDVTDNRAFGYVCGGEGQHQFFAIKTGQQAEPLVVDLKDLFQVIYNVKKKEEEKKKIEEASKAVENGSEALMILDDQTNKLKSGVDQMDLFGDMSTPPDLNSPTESKDILLVDLNSEIDTNQNSLRENPFLTNGITSCSLPRPTPQASFLPENAFSANLNFFPTPNPDPFRDDPFTQPDQSTPSSFDSLKSPDQKKENSSSSSTPLSNGPLNGDVDYFGQQFDQISNRTGKQEAQAGPWPFSSSQTQPAVRTQNGVSEREQNGFSVKSSPNPFVGSPPKGLSIQNGVKQDLESSVQSSPHDSIAIIPPPQSTKPGRGRRTAKSSANDLLASDIFAPPVSEPSGQASPTGQPTALQPNPLDLFKTSAPAPVGPLVGLGGVTVTLPQAGPWNTASLVFNQSPSMAPGAMMGGQPSGFSQPVIFGTSPAVSGWNQPSPFAASTPPPVPVVWGPSASVAPNAWSTTSPLGNPFQSNIFPAPAVSTQPPSMHSSLLVTPPQPPPRAGPPKDISSDAFTALDPLGDKEIKDVKEMFKDFQLRQPPAVPARKGEQTSSGTLSAFASYFNSKVGIPQENADHDDFDANQLLNKINEPPKPAPRQVSLPVTKSTDNAFENPFFKDSFGSSQASVASSQPVSSEMYRDPFGNPFA
B5: TNFRSF6B (protein, UniProt O95407 30-300, looked up)
Tumor necrosis factor …: VAETPTYPWRDAETGERLVCAQCPPGTFVQRPCRRDSPTTCGPCPPRHYTQFWNYLERCRYCNVLCGEREEEARACHATHNRACRCRTGFFAHAGFCLEHASCPPGAGVIAPGTPSQNTQCQPCPPGTFSASSSSSEQCQPHRNCTALGLALNVPGSSSHDTLCTSCTGFPLSTRVPGAEECERAVIDFVAFQDISIKRLQRLLQALEAPEGWGPTPRAGRAALQLKLRRRLTELLGAQDGALLVRLLQALRVARMPGLERSVRERFLPVH
B6: CLM-1 (protein, UniProt Q8TDQ1 20-290, looked up)
CMRF35-like molecule 1: TQITGPTTVNGLERGSLTVQCVYRSGWETYLKWWCRGAIWRDCKILVKTSGSEQEVKRDRVSIKDNQKNRTFTVTMEDLMKTDADTYWCGIEKTGNDLGVTVQVTIDPAPVTQEETSSSPTLTGHHLDNRHKLLKLSVLLPLIFTILLLLLVAASLLAWRMMKYQQKAAGMSPEQVLQPLEGDLCYADLTLQLAGTSPQKATTKLSSAQVDQVEVEYVTMASLPKEDISYASLTLGAEDQEPTYCNMGHLSSHLPGRGPEEPTEYSTISRP
B7: ARHGAP1 (protein, UniProt Q07960 1-439, looked up)
Rho GTPase-activating protein …: MDPLSELQDDLTLDDTSEALNQLKLASIDEKNWPSDEMPDFPKSDDSKSSSPELVTHLKWDDPYYDIARHQIVEVAGDDKYGRKIIVFSACRMPPSHQLDHSKLLGYLKHTLDQYVESDYTLLYLHHGLTSDNKPSLSWLRDAYREFDRKYKKNIKALYIVHPTMFIKTLLILFKPLISFKFGQKIFYVNYLSELSEHVKLEQLGIPRQVLKYDDFLKSTQKSPATAPKPMPPRPPLPNQQFGVSLQHLQEKNPEQEPIPIVLRETVAYLQAHALTTEGIFRRSANTQVVREVQQKYNMGLPVDFDQYNELHLPAVILKTFLRELPEPLLTFDLYPHVVGFLNIDESQRVPATLQVLQTLPEENYQVLRFLTAFLVQISAHSDQNKMTNTNLAVVFGPNLLWAKDAAITLKAINPINTFTKFLLDHQGELFPSPDPSGL
B8: ICAM1 (protein, UniProt P05362 28-532, looked up)
Intercellular adhesion …: QTSVSPSKVILPRGGSVLVTCSTSCDQPKLLGIETPLPKKELLLPGNNRKVYELSNVQEDSQPMCYSNCPDGQSTAKTFLTVYWTPERVELAPLPSWQPVGKNLTLRCQVEGGAPRANLTVVLLRGEKELKREPAVGEPAEVTTTVLVRRDHHGANFSCRTELDLRPQGLELFENTSAPYQLQTFVLPATPPQLVSPRVLEVDTQGTVVCSLDGLFPVSEAQVHLALGDQRLNPTVTYGNDSFSAKASVSVTAEDEGTQRLTCAVILGNQSQETLQTVTIYSFPAPNVILTKPEVSEGTEVTVKCEAHPRAKVTLNGVPAQPLGPRAQLLLKATPEDNGRSFSCSATLEVAGQLIHKNQTRELRVLYGPRLDERDCPGNWTWPENSQQTPMCQAWGNPLPELKCLKDGTFPLPIGESVTVTRDLEGTYLCRARSTQGEVTRKVTVNVLSPRYEIVIITVVAAAVIMGTAGLSTYLYNRQRKIKKYRLQQAQKGTPMKPNTQATPP
B9: PRKCQ (protein, UniProt Q04759 1-706, looked up)
Protein kinase C theta type: MSPFLRIGLSNFDCGSCQSCQGEAVNPYCAVLVKEYVESENGQMYIQKKPTMYPPWDSTFDAHINKGRVMQIIVKGKNVDLISETTVELYSLAERCRKNNGKTEIWLELKPQGRMLMNARYFLEMSDTKDMNEFETEGFFALHQRRGAIKQAKVHHVKCHEFTATFFPQPTFCSVCHEFVWGLNKQGYQCRQCNAAIHKKCIDKVIAKCTGSAINSRETMFHKERFKIDMPHRFKVYNYKSPTFCEHCGTLLWGLARQGLKCDACGMNVHHRCQTKVANLCGINQKLMAEALAMIESTQQARCLRDTEQIFREGPVEIGLPCSIKNEARPPCLPTPGKREPQGISWESPLDEVDKMCHLPEPELNKERPSLQIKLKIEDFILHKMLGKGSFGKVFLAEFKKTNQFFAIKALKKDVVLMDDDVECTMVEKRVLSLAWEHPFLTHMFCTFQTKENLFFVMEYLNGGDLMYHIQSCHKFDLSRATFYAAEIILGLQFLHSKGIVYRDLKLDNILLDKDGHIKIADFGMCKENMLGDAKTNTFCGTPDYIAPEILLGQKYNHSVDWWSFGVLLYEMLIGQSPFHGQDEEELFHSIRMDNPFYPRWLEKEAKDLLVKLFVREPEKRLGVRGDIRQHPLFREINWEELERKEIDPPFRPKVKSPFDCSNFDKEFLNEKPRLSFADRALINSMDQNMFRNFSFMNPGMERLIS
B10: TNFRSF14 (protein, UniProt Q92956 39-283, looked up)
Tumor necrosis factor …: LPSCKEDEYPVGSECCPKCSPGYRVKEACGELTGTVCEPCPPGTYIAHLNGLSKCLQCQMCDPAMGLRASRNCSRTENAVCGCSPGHFCIVQDGDHCAACRAYATSSPGQRVQKGGTESQDTLCQNCPPGTFSPNGTLEECQHQTKCSWLVTKAGAGTSSSHWVWWFLSGSLVIVIVCSTVGLIICVKRRKPRGDVVKVIVSVQRKRQEAEGEATVIEALQAPPDVTTVAVEETIPSFTGRSPNH
B11: KIM1 (protein, UniProt Q96D42 21-364, looked up)
Hepatitis A virus cellular …: SVKVGGEAGPSVTLPCHYSGAVTSMCWNRGSCSLFTCQNGIVWTNGTHVTYRKDTRYKLLGDLSRRDVSLTIENTAVSDSGVYCCRVEHRGWFNDMKITVSLEIVPPKVTTTPIVTTVPTVTTVRTSTTVPTTTTVPMTTVPTTTVPTTMSIPTTTTVLTTMTVSTTTSVPTTTSIPTTTSVPVTTTVSTFVPPMPLPRQNHEPVATSPSSPQPAETHPTTLQGAIRREPTSSPLYSYTTDGNDTVTESSDGLWNNNQTQLFLEHSLLTANTTKGIYAGVCISVLVLLALLGVIIAKKYFFKKEVQQLSVSFSSLQIKALQNAVEKEVQAEDNIYIENSLYATD

Where “and” joins values, the source holds several entries; their conditions need not be identical. Identical values can stand only once.

The experiment deals with plasma proteins. As to the kind of experiment: Plasma proteins modulated between baseline and day 28 in responders (CR, VGPR, PR; n = 19), Example 6 (Table 13). The format is in vivo, human. To be noted: plasma protein (OLINK NPX); responders (CR, VGPR, PR; n = 19); itacitinib 200 mg or 300 mg QD with corticosteroids; day 28 vs baseline. In outline:
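Plasma at baseline/screening and day 28 profiled for >1000 proteins by OLINK proximity extension assay, reported as NPX (log2). Steroid-naive and steroid-refractory patients pooled. Paired and unpaired t tests, ANOVA and Pearson correlation applied; significance at P<0.05.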
On to B1, for which the “Fold Change, Decreased Expression from Baseline to Day 28” value (shortened to “Fold Change, Decreased Expression”) is listed as −1.2337.

On to B2, for which the “Fold Change, Decreased Expression” value is listed as −1.4021.

With B3, the “Fold Change, Decreased Expression” value is −1.2841.

Turning to B4, the “Fold Change, Decreased Expression” value is given as −1.2548.

For B5, the “Fold Change, Decreased Expression” value is −1.3504.

Take B6: the “Fold Change, Decreased Expression” value was −1.3921.

Take B7: the “Fold Change, Decreased Expression” value was −1.6039.

B8: the “Fold Change, Decreased Expression” value was −1.354.

Turning to B9, the “Fold Change, Decreased Expression” value is recorded as −1.3251.

Turning to B10, the “Fold Change, Decreased Expression” value is −1.2658.

With B11, the “Fold Change, Increased Expression from Baseline to Day 28” value was 1.7741 and 1.757.
